Literature values as cited in publication PMC2983480.
pKd: −log10 of the molar value.

Biological target: Arp2/3 complex (Bos taurus) (UniProt A7MB62)

pKd: 6.05
Substance: WASp VCA (from UniProt P42768)
